{"source": "paper PMC5228132", "key": {"[1]": {"target": "VdPG1 (Verticillium dahliae polygalacturonase 1) (Verticillium dahliae)"}, "[2]": {"target": "FovPG1 (Fusarium oxysporum f. sp. vasinfectum polygalacturonase 1) (Fusarium oxysporum f. sp. vasinfectum)"}, "[3]": {"target": "VdPG1 (Verticillium dahliae polygalacturonase 1) (Verticillium dahliae)", "remark": "listed apart in the source"}}, "data": [{"substance": "GhPGIP1 (cotton polygalacturonase-inhibiting protein 1) (natural protein)", "values": [{"measurement": "IC50 of inhibition; the text gives it for VdPG1, while the caption and footnote of Table 1 give it as antifungal activity on the growth of V. dahliae (eight doses of purified GhPGIP1)", "setting": "[1]", "result": 44.4, "unit": "µg/mL"}, {"measurement": "percent inhibition of PG activity by 3.24 nM GhPGIP1 over pH 7.0-10.0; 23.79% at pH 8.0 and 29.61% at pH 9.0", "setting": "[2]", "result": 29.6, "unit": "%"}, {"measurement": "percent inhibition of PG activity by 3.24 nM GhPGIP1 over pH 3.5-5.0; 26.88% at pH 4.2 and 31.45% at pH 4.8", "setting": "[3]", "result": 31.4, "unit": "%"}]}]}
